B1: CDC25A (parent)
chain: TVAGKHQDLKYISPEIMASVLNGK
B2: ZNF207 (parent)
chain: CHICHKKLYTGPGLAIHCMQVHKE

Variants of: B1
Test: protein stability index of a GFP-peptide fusion (GPS, HEK-293T) (PSI 1-6); higher = more stable
Conditions: c terminus: a fixed tail appended
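Note: lentivirally expressed fusions sorted by FACS into six bins by GFP to DsRed ratio, PSI derived from sequencing read proportions per bin multiplied by bin number.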

Protein stability index, by site and new letter:
E15: F 2.07, G 3.08, H 2.74, I 1.78, K 2.68, L 1.99, M 2.19, N 2.95, P 3.05, Q 2.82, R 2.64, S 3.09, T 2.63, V 1.89, W 1.76, Y 1.84
I16: A 3.66, C 3.44, D 4.25, E 4.29, F 2.87, G 3.84, H 3.97, K 3.42, L 2.86, M 3.62, N 3.8, P 4.45, Q 4.28, R 3.73, S 3.78, T 3.62, V 3.47, W 2.87, Y 2.85
M17: A 3.96, C 3.42, D 3.89, E 4.21, F 2.78, G 3.88, H 3.8, I 2.71, K 3.96, L 2.64, N 3.74, P 4, Q 3.73, R 3.87, S 4.12, T 3.22, V 3.42, W 2.46, Y 3.1
A18: C 3.11, D 3.45, E 4, F 2.73, G 3.44, H 3.08, I 2.13, K 3.16, L 2.53, M 2.33, N 3.1, P 3.6, Q 3.34, R 2.71, S 3.3, T 3.74, V 2.54, W 1.97, Y 2.65
S19: A 3.1, C 2.46, D 3.41, E 4.06, F 2.01, G 2.77, H 2.88, I 2.16, K 3.24, L 1.86, M 2.38, N 3.61, P 3.65, Q 3.28, R 3.29, T 2.83, V 2.13, W 1.94, Y 1.88
V20: A 3.56, C 2.93, D 4.35, E 4.1, F 2.92, G 3.79, H 3.33, I 2.63, K 3.73, L 2.84, M 3.56, N 3.38, P 3.64, Q 3.68, R 3.99, S 4.11, T 3.75, W 2.84, Y 2.72
L21: A 3.83, C 3.54, D 4.05, E 4.02, F 3.16, G 3.83, H 4.05, I 3.35, K 4.25, M 3.4, N 3.65, P 4.08, Q 4, R 3.7, S 3.8, T 3.84, V 3.54, W 3.17, Y 3.18
N22: A 2.92, C 2.53, D 3.54, E 3.92, F 1.93, G 2.84, H 2.96, I 2.77, K 2.94, L 2.56, M 2.66, P 3.4, Q 3.37, R 2.71, S 3.27, T 2.88, V 2.55, W 1.95, Y 2.41
G23: A 2.96, C 2.63, D 3.57, E 3.69, F 2.37, H 2.9, I 2.48, K 3.36, L 2.63, M 2.46, N 3.9, P 2.56, Q 3.4, R 3.37, S 3.01, T 3.25, V 2.61, W 2.33, Y 2.35
K24: A 2.67, C 2.42, D 3.61, E 3.73, F 1.89, G 2.87, H 2.44, I 2.01, L 2.01, M 2.36, N 3.21, P 3.26, Q 3.4, R 3.06, S 2.94, T 2.69, V 2.09, W 1.93, Y 2.01

Variants of: B2
Test: as above
Conditions: c terminus: a fixed tail appended

Protein stability index of substitutions, site by site:
C1: A 2.02, D 2.78, E 2.76, G 2.07, H 1.83, I 1.52, K 2.16, L 1.94, M 2.03, N 2.24, P 2.69, Q 1.8, R 3, S 2.58, T 1.94, Y 2.84
H2: A 2.71, C 2.45, D 4.28, E 3.07, F 2.76, G 3.31, I 2.46, K 2.91, L 2.78, M 2.49, N 3.65, P 2.9, Q 3.4, R 2.59, S 2.73, T 2.87, V 2.44, W 2.61, Y 2.74
I3: A 2.17, C 2.54, D 2.24, E 2.37, F 2.34, G 2.48, H 3.67, K 3.1, L 3.09, M 2.73, N 2.19, P 1.99, Q 2.44, R 2.52, S 2.58, T 3.03, V 2.51, W 2.73, Y 3.43
C4: A 1.36, D 1.6, E 1.07, F 1.93, G 1.7, H 1.6, I 3.16, K 1.15, L 1.39, M 2.12, N 1.9, P 2.5, Q 2.01, R 1.94, S 1.38, T 1.5, W 1.88, Y 2.04
H5: A 3.83, C 2.4, D 3.49, E 3.63, F 3.26, G 3.35, I 2.03, K 2.55, L 3.01, M 3.33, N 3.18, P 2.39, Q 2.79, R 2.96, S 2.83, T 2.48, V 1.63, W 2.74, Y 2.97
K6: A 4.37, C 3.45, D 3.28, E 4.41, F 1.84, G 3.03, H 3.51, I 2.63, L 2.36, M 3.35, N 3.25, P 2.12, Q 4.09, R 3.97, S 3.54, T 2.15, V 3.41, W 2.17, Y 2.72
K7: A 3.92, C 3.63, D 4.16, E 4.14, F 4.02, G 3.27, H 3.25, I 3.73, L 4.3, M 3.86, N 4.21, P 2.55, Q 4.11, R 3.48, S 3.66, T 3.98, V 4.09, W 3.27, Y 4.2
L8: A 2.33, C 3.16, D 3.37, E 3.96, F 2.44, G 3.61, H 3.14, I 3.67, K 2.42, M 4.63, N 2.97, P 3.1, Q 2.93, R 1.37, S 2.57, T 3.02, V 4.12, W 2.66
